± gives the standard error. This sample holds only a part of the variants without activity.
B1: glmS ribozyme (parent)
chain: AUAAAAGCGCCAGAACUACAGAAAUGUAGUUGACGAGGAGGAGGUUUAUCGAAUUUUCGGCGGAUGCCUCCAAA

Key:
Conditions in all cases: with glucosamine-6-phosphate
glucosamine-6-phosphate [1] = variants of: B1; assay: self-cleavage kobs at 40 uM GlcN6P; higher = faster cleavage; RNA array
Summary of the method: (§1)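 Glucosamine-6-phosphate, from 40 μM to 10 mM in HEPES/KCl/Mg(OAc)2 buffer, was flowed over sequenced MiSeq chips carrying barcoded ribozyme variants transcribed in situ by E. coli RNA polymerase. A hybridised Cy3 probe tracked the variants at 37 °C as tiles were imaged over ~14 h. kobs, kcat and KM were obtained by fitting normalised per-tile medians to exponential decays and then applying weighted Michaelis–Menten fits across concentrations.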

glucosamine-6-phosphate [2] = variants of: B1; assay: self-cleavage kobs at 160 uM GlcN6P; higher = faster cleavage; RNA array
Summary of the method: as §1

glucosamine-6-phosphate [3] = variants of: B1; assay: self-cleavage kobs at 640 uM GlcN6P; higher = faster cleavage; RNA array
Summary of the method: as §1

glucosamine-6-phosphate [4] = variants of: B1; assay: self-cleavage kobs at 2500 uM GlcN6P; higher = faster cleavage; RNA array
Summary of the method: as §1

glucosamine-6-phosphate [5] = variants of: B1; assay: self-cleavage kobs at 10000 uM GlcN6P; higher = faster cleavage; RNA array
Summary of the method: as §1

Variant | self-cleavage kobs at 40 uM GlcN6P (glucosamine-6-phosphate [1]) | self-cleavage kobs at 160 uM GlcN6P (glucosamine-6-phosphate [2]) | self-cleavage kobs at 640 uM GlcN6P (glucosamine-6-phosphate [3]) | self-cleavage kobs at 2500 uM GlcN6P (glucosamine-6-phosphate [4]) | self-cleavage kobs at 10000 uM GlcN6P (glucosamine-6-phosphate [5])
A12C A36G | < 1e-05 s⁻¹ | < 1e-05 s⁻¹ | < 1e-05 s⁻¹ | < 1e-05 s⁻¹ | < 1e-05 s⁻¹
U30A G35A G59A C71G | < 1e-05 s⁻¹ |  |  | < 1e-05 s⁻¹ | 
A14U A42G G44U G63U | < 1e-05 s⁻¹ |  |  | < 1e-05 s⁻¹ | 
U31A C71U | 0.000386 ± 3.4e-05 s⁻¹ | 0.000552 ± 0.0001 s⁻¹ | 0.00393 ± 0.00052 s⁻¹ | 0.00846 ± 0.0018 s⁻¹ | 0.0362 ± 0.0056 s⁻¹
G7U A48G A64U | < 1e-05 s⁻¹ |  |  |  | < 1e-05 s⁻¹
G7U A64C | < 1e-05 s⁻¹ |  | < 1e-05 s⁻¹ |  | < 1e-05 s⁻¹
G7A G35A A53C | < 1e-05 s⁻¹ | < 1e-05 s⁻¹ | < 1e-05 s⁻¹ | < 1e-05 s⁻¹ | 
A14G U54G | 0.00166 ± 0.00021 s⁻¹ | 0.0021 ± 0.00047 s⁻¹ | 0.0114 ± 0.003 s⁻¹ |  | 0.023 ± 0.0048 s⁻¹
G60A G62C | < 1e-05 s⁻¹ | < 1e-05 s⁻¹ |  | < 1e-05 s⁻¹ | 
A12U A15G | 0.00156 ± 0.00021 s⁻¹ | 0.00363 ± 0.00072 s⁻¹ | 0.0146 ± 0.0029 s⁻¹ | 0.0139 ± 0.0034 s⁻¹ | 0.0602 ± 0.02 s⁻¹
G9A U31G C68G | < 1e-05 s⁻¹ |  | < 1e-05 s⁻¹ |  | 
A6G A14U G40C C67G | < 1e-05 s⁻¹ |  | < 1e-05 s⁻¹ |  | 
A6G G40C U47G U49G C58G C68A | < 1e-05 s⁻¹ |  |  |  | < 1e-05 s⁻¹
A12G G60A | < 1e-05 s⁻¹ | < 1e-05 s⁻¹ |  | < 1e-05 s⁻¹ | < 1e-05 s⁻¹
A14U G37A C50U G63C | < 1e-05 s⁻¹ |  |  |  | 
C8U A48G C70U | < 1e-05 s⁻¹ |  | < 1e-05 s⁻¹ |  | < 1e-05 s⁻¹
C68G C71G | 2.7e-05 ± 1.3e-05 s⁻¹ | 7.77e-05 ± 1.5e-05 s⁻¹ | 8.75e-05 ± 2.3e-05 s⁻¹ | 9.89e-05 ± 1.7e-05 s⁻¹ | 
G32C G40C | < 1e-05 s⁻¹ | < 1e-05 s⁻¹ | < 1e-05 s⁻¹ |  | 
A33U U65C | < 1e-05 s⁻¹ | < 1e-05 s⁻¹ | < 1e-05 s⁻¹ |  | 
U30A A48U | < 1e-05 s⁻¹ |  |  |  | 4.05e-05 ± 1.5e-05 s⁻¹
G44U G66U U69G | < 1e-05 s⁻¹ |  |  |  | 
A33C C67U | < 1e-05 s⁻¹ | < 1e-05 s⁻¹ | < 1e-05 s⁻¹ |  | 
U31G A36C C61U | < 1e-05 s⁻¹ |  |  |  | < 1e-05 s⁻¹
G29U U49A U57C C70G | < 1e-05 s⁻¹ |  |  |  | 

Variant | self-cleavage kobs at 40 uM GlcN6P (glucosamine-6-phosphate [1]) | self-cleavage kobs at 160 uM GlcN6P (glucosamine-6-phosphate [2]) | self-cleavage kobs at 640 uM GlcN6P (glucosamine-6-phosphate [3]) | self-cleavage kobs at 2500 uM GlcN6P (glucosamine-6-phosphate [4]) | self-cleavage kobs at 10000 uM GlcN6P (glucosamine-6-phosphate [5])
U30G A42G | 0.000448 ± 7.5e-05 s⁻¹ | 0.000561 ± 0.00012 s⁻¹ | 0.00469 ± 0.001 s⁻¹ | 0.0119 ± 0.0032 s⁻¹ | 0.0206 ± 0.0039 s⁻¹
A12U G29U A33U A42U U49A | < 1e-05 s⁻¹ |  |  |  | 
G32U U55G A64U | < 1e-05 s⁻¹ |  |  |  | 
C50A G62A A64C | < 1e-05 s⁻¹ |  |  |  | < 1e-05 s⁻¹
A53G G62A C67U | < 1e-05 s⁻¹ |  |  |  | 
G13A A15U G41U C50A U54A U57C | < 1e-05 s⁻¹ |  |  |  | < 1e-05 s⁻¹
A6G G63A | < 1e-05 s⁻¹ | < 1e-05 s⁻¹ | < 1e-05 s⁻¹ | < 1e-05 s⁻¹ | < 1e-05 s⁻¹
C10A G38U G59A G60A G62A A64U G66C C68G | 0.000187 ± 6.6e-05 s⁻¹ |  |  |  | 
G7C A33U G41A U56A C71U | < 1e-05 s⁻¹ |  |  |  | 
G37U A39G G62A C68A | < 1e-05 s⁻¹ |  |  |  | < 1e-05 s⁻¹
C11G G38A | < 1e-05 s⁻¹ |  | < 1e-05 s⁻¹ | < 1e-05 s⁻¹ | 
A12U G63A | < 1e-05 s⁻¹ | < 1e-05 s⁻¹ | < 1e-05 s⁻¹ | < 1e-05 s⁻¹ | < 1e-05 s⁻¹
G7A G32U A39G C58A | < 1e-05 s⁻¹ |  |  |  | < 1e-05 s⁻¹
G32U A36G | < 1e-05 s⁻¹ | < 1e-05 s⁻¹ | < 1e-05 s⁻¹ | < 1e-05 s⁻¹ | < 1e-05 s⁻¹
C34U U45C | < 1e-05 s⁻¹ | < 1e-05 s⁻¹ |  | < 1e-05 s⁻¹ | < 1e-05 s⁻¹
A6C U31C | < 1e-05 s⁻¹ | < 1e-05 s⁻¹ |  |  | 
A1U U2G A3G A5U A6C G7C C8A G29C G32U G60U | < 1e-05 s⁻¹ |  |  |  | 
G44C A64G C70U | < 1e-05 s⁻¹ |  | < 1e-05 s⁻¹ | < 1e-05 s⁻¹ | < 1e-05 s⁻¹
A14G C50U G66U C68A | 5.56e-05 ± 2.7e-05 s⁻¹ |  |  |  | 4.35e-05 ± 1.8e-05 s⁻¹
C8U U57C | < 1e-05 s⁻¹ | < 1e-05 s⁻¹ | < 1e-05 s⁻¹ | < 1e-05 s⁻¹ | < 1e-05 s⁻¹
C11U A33G | < 1e-05 s⁻¹ | < 1e-05 s⁻¹ |  | < 1e-05 s⁻¹ | < 1e-05 s⁻¹
C50G A64G C71A | 8.51e-05 ± 2.3e-05 s⁻¹ |  |  |  | 9.96e-05 ± 2.1e-05 s⁻¹
G41A G59C C68A | < 1e-05 s⁻¹ |  |  | < 1e-05 s⁻¹ | < 1e-05 s⁻¹
